Values belong to the binder of their own block, whether it stands above or below them.
Tests used:
Experiment in all cases: SPR (Carterra); apparent Kd
Positive Control (27B3) = biological target: Positive Control (27B3)
Positive Control (1C8) = biological target: Positive Control (1C8)
Positive Control (8G1) = biological target: Positive Control (8G1)
[1] = biological target: T1, CD70 (antigen of the Carterra KD analysis) (UniProt P32970 39-193)
T1 chain: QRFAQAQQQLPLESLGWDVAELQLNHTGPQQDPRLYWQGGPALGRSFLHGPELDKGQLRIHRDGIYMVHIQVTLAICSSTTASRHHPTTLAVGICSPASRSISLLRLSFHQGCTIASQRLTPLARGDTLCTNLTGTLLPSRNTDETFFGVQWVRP

Kd (Positive Control (27B3)): 0.634 nM
Kd (Positive Control (1C8)): 0.652 nM
Kd (Positive Control (8G1)): 2.19 nM
B1: CD70 (ligand)
chain: T1 chain

Kd [1]: 2.73 nM
B2: H1-Fc (anti-CD70 VHH-Fc fusion polypeptide) (Fc fusion)
chain: QVQLQESGGGLVQAGGSLRLSCAAPRSIFSINAMGWYRQAPGKQRELVAAITSGGSPTYADSVKGRFTISRDNAKNTVYLQMNSLKAEDTAVYYCATGPYGLDNALDAWGQGTQVTVSS

Kd [1]: 23.4 nM
B3: C1-Fc (anti-CD70 VHH-Fc fusion polypeptide) (Fc fusion)
chain: QVQLQESGGGLVQTGGSLRLACTASGFTFDDYAIAWFRQAPGKEREFVAAISWSGGTTHYADSVKGRFTISRDNAKNTLYLQMSSLKPEDTAVYFCAKSLRSSPSSRWFGSRGQGTQVTVSS
